Key:
ob/ob mice [1] = test: ob/ob mice administered ZAG i.v. for 5 days (120 h): body weight, temperature, plasma metabolites, tissue weights; format: in vivo, mouse
Description: Animals—Mice. Homozygous obese (ob/ob) mice from the colony maintained at Aston University were used in the present study. The origin and characteristics of Aston ob/ob mice have been previously described. Male mice (20-21 weeks old, weight 90-100 g) were grouped into three per cage in an air conditioned room at 22±2° C. with a 12 h-light:12 h-dark cycle and fed a rat and mouse breeding diet (Special Diet Services, Witham, UK) and tap water ad libitum. They were administered ZAG (35 μg) in PBS (100 μl) b.d. by i.v. administration and body weight and food and water intake were monitored daily. Control mice received PBS alone. Body temperature was measured daily by the use of a rectal thermometer (RS Components, Northants, UK). All animal experiments were carried out in accordance with the U.K. Animals (Scientific Procedures) Act 1986.
Serum Metabolite Determinations. Non-esterified fatty acids (NEFA) were determined using a Wako-ASC-ACOD kit (Wako Chemical GmbH, Neuss, Germany). Triglycerides were determined using a Triglyceride kit (Sigma Chemical Co., Poole, United Kingdom) and 3-hydroxybutyrate by a quantitative enzymatic determination kit (Sigma). Glucose was measured using a glucose analyser (Beckman, Irvine, Calif.) and glycerol was determined enzymatically using the method of Wieland as described in “Methods of Enzymatic Analysis” (Ed. Bergmeyer, H. U.) Vol. 3, pp1404-1409, published by Academic Press, London (1974).

ob/ob mice [2] = test: Oral (p.o.) administration of rhZAG to ob/ob mice; format: in vivo, mouse
Description: 50 ug per day of rhZAG was administered p.o. to Aston ob/ob mice. Oral dosing was achieved by assuming 5 mL/day consumption of water, and adding ZAG to achieve 50 ug per day dose based on that assumption. No attempt was made to correct for variations of consumption on a given day.
Experiment One (8 Day Oral ZAG Study): 50 ug of ZAG was administered p.o. daily in drinking water.
Experiment Two (8 Day Oral ZAG Plus Propranolol Study): 50 ug of ZAG administered p.o. daily, with and without propranolol. Propanolol blocks all of the effects of ZAG including decrease in body weight and blood glucose in the tolerance test, also blocking the rise in body temperature and the rise in plasma mouse ZAG, confirming that this occurs through a beta adrenergic receptor. […] It appears to do this by preventing the rise in mouse ZAG in the serum after oral administration of the rhZAG.
Experiment Three (Oral Study): ZAG administered p.o. daily over an extended time frame, with a recovery group split from the treated group beginning at 30 days (data not shown).

human β1-AR [3] = molecular target: T1, human β1-AR (Homo sapiens, UniProt P08588); test: Cyclic AMP production in CHO-K1 cells transfected with β1-AR; format: cell-based; conditions: any concentration
T1 construct: host or cells: CHO-K1
T1 sequence (P08588 whole entry): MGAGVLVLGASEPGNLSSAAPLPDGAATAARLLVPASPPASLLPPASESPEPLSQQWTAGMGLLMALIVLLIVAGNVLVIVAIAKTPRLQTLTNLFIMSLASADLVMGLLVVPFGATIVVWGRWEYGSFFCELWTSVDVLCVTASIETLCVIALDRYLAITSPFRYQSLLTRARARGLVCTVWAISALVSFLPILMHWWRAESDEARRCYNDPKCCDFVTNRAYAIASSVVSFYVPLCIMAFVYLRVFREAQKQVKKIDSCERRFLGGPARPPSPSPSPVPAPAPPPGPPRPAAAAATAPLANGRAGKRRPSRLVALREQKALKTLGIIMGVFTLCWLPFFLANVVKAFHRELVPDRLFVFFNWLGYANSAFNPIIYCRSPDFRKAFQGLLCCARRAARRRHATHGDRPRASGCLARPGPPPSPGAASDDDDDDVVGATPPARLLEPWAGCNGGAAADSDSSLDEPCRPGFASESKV
Description: Binding Studies and Cyclic AMP Determination. CHO-K1 cells transfected with the human β1- and β2-AR obtained from University of Nottingham, UK, while CHOK1 cells transfected with the β3-AR were obtained from Astra Zeneca, Macclesfield, Cheshire, UK. Gene expression was under the control of hygromycin, together with a β-gal reporter construct, selected for resistance to G418. They were maintained in DMEM supplemented with 2 mM glutamine, hygromycin B ([…]), G418 ([…]), and 10% FCS, under an atmosphere of 10% CO2 in air. To determine the effect of agonists on cyclic AMP production, cells were grown in 24-well plates containing 1 ml of nutrient medium.

[4] = test system: rat epididymal adipocytes; test: Lipolytic activity in rat adipocytes; format: cell-based; conditions: concentrations between 233 and 700 nM
Description: Lipolytic Activity in Rat Adipocytes—White adipocytes were prepared from finely minced epididymal adipose tissue of male Wistar rats (400 g) using collagenase digestion, as described (Beck S A, et al. Production of lipolytic and proteolytic factors by a murine tumor-producing cachexia in the host. Cancer Res 47:5919-5923, 1987). Lipolytic activity was determined by incubating 10^5-2×10^5 adipocytes for 2 h in 1 ml Krebs-Ringer bicarbonate buffer, pH 7.2, and the extent of lipolysis was determined by measuring the glycerol released (Wieland O. Glycerol UV method. Methods of Enzymatic Analysis, edited by Bergmeyer H U. Academic Press, London, pp 1404-1409, 1974). Spontaneous glycerol release was measured by incubating adipocytes alone. Lipolytic activity was expressed as μmol glycerol released/10^5 adipocytes/2 h.

human β1-AR [5] = molecular target: T1, human β1-AR; test: [125I] ZAG binding to crude membranes of CHO-K1 β1 cells
Description: [^125I] labelling of ZAG. One iodo bead that had been washed and dried was incubated with Na [^125I] (1 mCi per 100 μg protein) for 5 min in PBS, then ZAG (100 μg protein) was added and left for a further 15 min. The reaction was terminated by removal of the iodo bead, while free Na [^125I] was removed using a Sephadex G25 column eluted with 0.1MNaI. The [^125I] ZAG was concentrated against PBS using a Microcon microconcentrator with a filter cut-off of Mr 10,000. The specific activity of the [^125I] ZAG was 8 Cimg protein^1.
For binding studies cells were sonicated in 2 mM Tris HCl, pH7.5, containing […] and crude total membranes were pelleted by centrifugation (13,000 g; 15 min) at 4° C. Binding studies were carried out at 37° C. by incubating membranes (500 μg protein) in 0.4 ml 50 mM Tris HCl, pH 7.5, containing 0.5 mM MgCl2 for 60 min with various concentrations of [^125I] ZAG (3,000 to 15,000 cpm) in the absence or presence of 100 μM non-labelled ZAG. The membranes were then precipitated by centrifugation at 13000 g for 20 min, the supernatant was removed and the [^125I] bound to the pellet was quantitated using a Packard Corbra Model 5005 Auto-gamma counter. Binding was analysed using non-linear regression analysis (GraphPad Prism, Version 5.04). Specific binding was regarded as the amount of labelled ZAG displaced by non-radioactive ZAG.

[6] = 50 ug p.o. daily in drinking water, 8 days

B1: ZAG: recombinant full length human zinc-α2-glycoprotein (SEQ ID NO: 1) secreted by transfected HEK293F cells; lipid mobilizing factor (protein, listed as Homo sapiens)
chain: QENQDGRYSLTYIYTGLSKHVEDVPAFQALGSLNDLQFFRYNSKDRKSQPMGLWRQVEGMEDWKEDSQLQKAREDMETLKDIVEYYNDSNGSHVLQGRFGCEIENNRSSGAFWKYYYDGKDYIEFNKEIPAWVPFDPAAQITKQKWEAEPVYVQRAKAYLEEECPATLRKYLKYSKNILDRQDPPSVVVTSHQAPGEKKKLKCLAYDFYPGKIDVHWTRAGQVQEPELRGDVLHNGNGTYQSWVVVAVPPQDTAPYSCHVQHSSLAQPLVVPWEAS
oxygen uptake by BAT (ob/ob mice [1]; ob/ob mice after ZAG administration): three-fold increase | BAT weight (ob/ob mice [1]; ob/ob mice treated for 120 h): 0.73 ± 0.12 p < 0.01 g | Gastrocnemius weight (ob/ob mice [1]; ob/ob mice treated for 120 h): 1.12 ± 0.14 p < 0.01 g | Glucose (plasma) (ob/ob mice [1]; ob/ob mice treated for 120 h): 20.3 ± 0.8 p < 0.01 mmol/L | Glycerol (plasma) (ob/ob mice [1]; ob/ob mice treated for 120 h): 429 + 36 p < 0.001 μmol/L | Insulin (plasma) (ob/ob mice [1]; ob/ob mice treated for 120 h): 26.3 ± 0.52 p < 0.001 ng/mL | Insulin Pancreas (ob/ob mice [1]; ob/ob mice treated for 120 h): 16.3 ± 3.1 p = 0.0042 pg/g pancerase | NEFA (plasma) (ob/ob mice [1]; ob/ob mice treated for 120 h): 0.23 ± 0.05 p < 0.001 mEq/L | Soleus weight (ob/ob mice [1]; ob/ob mice treated for 120 h): 0.80 ± 0.09 p < 0.01 g | TG (plasma) (ob/ob mice [1]; ob/ob mice treated for 120 h): 0.9 ± 0.1 p < 0.05 mmol/L | adverse effects after administration (ob/ob mice [1]; ob/ob mice, 35 μg i.v.): No adverse effects were observed | decrease in plasma insulin levels (ob/ob mice [1]; ob/ob mice, 5 days): 36% | blood glucose (ob/ob mice [1]; ob/ob mice, Day 5 (value before the further drop)): 2.03 mM | rise of body temperature (ob/ob mice [1]; ob/ob mice, after 4 days of ZAG): 0.4 °C | weight difference between ZAG and PBS groups (ob/ob mice [1]; ob/ob mice, after 5 days): 3.5 g | outcome of oral ZAG (ob/ob mice [2]; [6]): weight loss, increase in body temperature and a lowering of urinary glucose occurred | rhZAG in serum after oral administration (ob/ob mice [2]; [6]): absence of rhZAG in serum | endogenous murine ZAG after oral rhZAG (ob/ob mice [2]; 50 ug p.o. daily, 8 days): increase in murine ZAG in serum and WAT | body weight lost (ob/ob mice [2]; p.o. daily, half way through the extended study): 13.5% | persistence of orally administered rhZAG in the stomach (ob/ob mice [2]; p.o., ob/ob mice): ≥ 24 h | time before 50% reversion of urinary glucose to control after treatment stop (ob/ob mice [2]; recovery group): 12 days | cyclic AMP production (human β1-AR [3]): no increase in cyclic AMP | glycerol release from rat epididymal adipocytes [4]: dose-related increase in glycerol release | binding to the β1-AR (human β1-AR [5]): no binding

Reference: patent US10077295B2, “Glycoproteins having lipid mobilizing properties and therapeutic uses thereof” (Aston University, priority 2010, dated 2018)
